The record followed here is patent EP4696329A1 (BioRay Pharmaceutical Co., Ltd., dated 2024).

Like-named read-outs stand apart in the source and are kept apart here.

The target in assay [1] is T1, human ROR2 protein (hROR2, Kactus Biosystems, Cat. No. ROR-HM402) (human, UniProt Q01974 34-403, limits assumed). As to the kind of experiment: ELISA, plate coated with hROR2. A general note: ELISA stands for enzyme-linked immunosorbent assay.
Assay [2] concerns the target T2, human ROR1 expressed on cells (MDA-MB-231, Jeko-1, PA-1, HCC1187) (human, UniProt Q01973 30-937).
T2 construct: also called hROR1
As to the kind of experiment: flow cytometry on MDA-MB-231 cells. For orientation: In flow cytometry, cells or beads pass a laser one at a time.

The target of assay [3] is T3, human ROR1 protein (recombinant ROR1 antigen, Kactus Biosystems) (human, UniProt Q01973 30-406, limits assumed). Briefly: BLI (Octet R8), antibody captured on AHC sensor, ROR1 antigen as analyte. On the technique in general: In BLI a coated tip is dipped into the sample, and binding shifts an interference pattern.
Assay [4] addresses T2, human ROR1 expressed on cells …. As to the kind of experiment: flow cytometry on MDA-MB-231 cells. The source holds these as a separate data set.
In assay [5] the target is T3, human ROR1 protein (recombinant ROR1 …). As to the kind of experiment: BLI (Octet R8), antibody captured on AHC sensor, ROR1 antigen as analyte. This is another data set of the same source.
Assay [6] addresses T1, human ROR2 protein (hROR2, Kactus …). Briefly: ELISA, plate coated with hROR2. This is another data set of the same source.
The target in assay [7] is T2, human ROR1 expressed on cells …. As to the kind of experiment: flow cytometry on MDA-MB-231 cells. The source holds these as a separate data set.
In assay [8] the target is T3, human ROR1 protein (recombinant ROR1 …). As to the kind of experiment: BLI (Octet R8), antibody captured on AHC sensor, ROR1 antigen as analyte. This is another data set of the same source.
The target is the same in assay [9]. Briefly: binding to ROR1 (column 'Binding to ROR1'; method not described).
The target in assay [10] is T2, human ROR1 expressed on cells …. Briefly: flow cytometry on Jeko-1 cells.
Assay [11] has as its target T1, human ROR2 protein (hROR2, Kactus …). As to the kind of experiment: ELISA, plate coated with hROR2. This is another data set of the same source.
Assay [12] addresses T2, human ROR1 expressed on cells …. Briefly: flow cytometry on Jeko-1 cells. The source holds these as a separate data set.
Assay [13] shares this target. As to the kind of experiment: flow cytometry on PA-1 cells.

T2 sequence (Q01973 30-937 limits assumed): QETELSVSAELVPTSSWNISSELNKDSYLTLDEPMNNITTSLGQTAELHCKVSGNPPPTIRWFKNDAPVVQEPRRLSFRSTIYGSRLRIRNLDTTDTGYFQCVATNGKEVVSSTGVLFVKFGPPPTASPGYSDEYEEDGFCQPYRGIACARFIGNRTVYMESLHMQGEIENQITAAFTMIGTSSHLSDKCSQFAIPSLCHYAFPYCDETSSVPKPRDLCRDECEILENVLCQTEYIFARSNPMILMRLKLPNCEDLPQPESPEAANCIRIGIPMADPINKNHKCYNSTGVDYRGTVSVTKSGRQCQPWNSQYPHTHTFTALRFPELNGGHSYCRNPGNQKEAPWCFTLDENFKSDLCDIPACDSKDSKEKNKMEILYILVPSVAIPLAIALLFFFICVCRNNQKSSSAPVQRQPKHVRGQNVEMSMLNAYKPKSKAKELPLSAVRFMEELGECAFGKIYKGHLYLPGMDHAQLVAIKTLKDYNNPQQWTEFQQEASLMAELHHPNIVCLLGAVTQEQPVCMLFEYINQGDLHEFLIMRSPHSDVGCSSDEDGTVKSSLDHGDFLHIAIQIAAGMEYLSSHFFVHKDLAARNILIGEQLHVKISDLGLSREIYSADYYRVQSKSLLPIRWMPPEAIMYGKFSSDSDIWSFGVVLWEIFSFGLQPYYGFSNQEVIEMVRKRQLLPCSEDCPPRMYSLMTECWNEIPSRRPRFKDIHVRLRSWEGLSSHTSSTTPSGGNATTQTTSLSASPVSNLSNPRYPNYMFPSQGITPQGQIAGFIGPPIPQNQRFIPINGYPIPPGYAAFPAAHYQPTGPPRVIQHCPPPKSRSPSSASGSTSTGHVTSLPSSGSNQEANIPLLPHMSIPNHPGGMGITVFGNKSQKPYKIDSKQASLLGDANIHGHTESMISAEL
T3 sequence (Q01973 30-406 limits assumed): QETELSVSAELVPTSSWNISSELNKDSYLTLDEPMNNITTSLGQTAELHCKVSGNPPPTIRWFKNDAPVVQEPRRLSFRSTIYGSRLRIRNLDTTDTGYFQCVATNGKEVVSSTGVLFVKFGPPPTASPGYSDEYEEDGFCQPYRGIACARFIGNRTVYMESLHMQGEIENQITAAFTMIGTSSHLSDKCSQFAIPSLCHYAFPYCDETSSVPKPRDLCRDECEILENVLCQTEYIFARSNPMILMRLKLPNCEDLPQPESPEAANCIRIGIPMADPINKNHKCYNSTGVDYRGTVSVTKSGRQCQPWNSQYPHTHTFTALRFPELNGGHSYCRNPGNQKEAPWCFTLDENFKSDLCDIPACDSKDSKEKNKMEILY
T1 sequence (Q01974 34-403 limits assumed): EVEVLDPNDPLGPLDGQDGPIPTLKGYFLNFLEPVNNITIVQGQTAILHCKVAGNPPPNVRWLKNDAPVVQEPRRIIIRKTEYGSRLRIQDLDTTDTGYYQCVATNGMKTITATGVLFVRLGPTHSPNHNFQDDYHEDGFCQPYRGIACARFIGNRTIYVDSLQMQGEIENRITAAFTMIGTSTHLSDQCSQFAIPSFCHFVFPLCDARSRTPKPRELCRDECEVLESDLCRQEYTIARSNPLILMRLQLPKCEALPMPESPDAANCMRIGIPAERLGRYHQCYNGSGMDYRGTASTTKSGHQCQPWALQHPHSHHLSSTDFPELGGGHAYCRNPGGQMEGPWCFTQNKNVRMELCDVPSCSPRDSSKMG

B1: chimeric antibody ch-D10 (antibody, human IgG1, kappa, V domains shown)
VH: QVQLKESGPGLVAPSQTLSITCTVSGFSLTSYGVHWVRQPPGKGLEWLGVIWAGGFTNYNSALKSRLSISKDNSKSQVLLKMTSLQTDDTAMYYCARRGSSYSMDYWGQGTSVTVSS
VL: EIVLSQSPAITAASLGQKVTITCSASSNVSYIHWYQQRSGTSPRPWIYEISKLASGVPVRFSGSGSGTSYSLTISSMEAEDAAIYYCQQWNYPLITFGSGTKLEIQR
notes: VH/VL of murine D10 on human IgG1 / kappa constant regions
In the case of B1, the binding result in assay [1] is “no binding (tested: starting from 333.33 nM)”. A half-maximal effect in assay [2] (EC50) was put at 0.0634 µg/mL. For the same molecule, in assay [3], the Kd (commonly the equilibrium constant for the complex coming apart) was 26.6 nM.

B2: YR-8 (antibody, human IgG1, kappa, V domains shown)
VH: QVQLQESGPGLVKPSETLSLTCTVSGFSLTRYGVHWIRQPPGKGLEWLGVIWAGGFTNYNSDLKSRLTISKDNSKNQVSLKLSSVTAADTAVYYCARRGDSYSMKYWGQGTLVTVSS
VL: EIVLTQSPATLSLSPGERATLSCSASSQVSYIHWYQQKPGQAPRPWIYETSKLASGIPARFSGSGSGTDYTLTISSLEPEDFAVYYCQQWNYPLITFGQGTKLEIKR
Take B2: the EC50 (usually the concentration at which the effect is half-maximal) in assay [4] was 0.02 µg/mL; in assay [7], 0.03 µg/mL; in [9], 0.01 µg/mL; in [10] it was 0.005 µg/mL. Further, the Kd worked out at 18 nM in [5] and 9.82 nM in assay [8]. Besides, the binding result in [6] is listed as “no binding (tested: starting from 333.33 nM)”.

B3: YR-8-NL (antibody, human IgG1, kappa, V domains shown)
VH: QVQLQESGPGLVKPSETLSLTCTVSGFSLTRYGVHWIRQPPGKGLEWLGVIWAGGFTNYNLDLKSRLTISKDNSKNQVSLKLSSVTAADTAVYYCARRGDSYSMKYWGQGTLVTVSS
VL: EIVLTQSPATLSLSPGERATLSCSASSQVSYIHWYQQKPGQAPRPWIYETSKLASGIPARFSGSGSGTDYTLTISSLEPEDFAVYYCQQWNYPLITFGQGTKLEIKR
notes: YR-8 with S61L (Kabat) in the heavy chain
Consider B3, for which the Kd in assay [5] was found to be 16 nM. Moreover, the binding result in assay [11] is recorded as “binds”.

B4: YR-8-NA (antibody, human IgG1, kappa, V domains shown)
VH: QVQLQESGPGLVKPSETLSLTCTVSGFSLTRYGVHWIRQPPGKGLEWLGVIWAGGFTNYNADLKSRLTISKDNSKNQVSLKLSSVTAADTAVYYCARRGDSYSMKYWGQGTLVTVSS
VL: EIVLTQSPATLSLSPGERATLSCSASSQVSYIHWYQQKPGQAPRPWIYETSKLASGIPARFSGSGSGTDYTLTISSLEPEDFAVYYCQQWNYPLITFGQGTKLEIKR
notes: YR-8 with S61A (Kabat) in the heavy chain
With B4, the Kd in [5] turned out to be 14 nM. In addition, in [11], the binding result was “binds”.

B5: YR-8-ES (antibody, human IgG1, kappa, V domains shown)
VH: QVQLQESGPGLVKPSETLSLTCTVSGFSLTRYGVHWIRQPPGKGLEWLGVIWAGGFTNYESDLKSRLTISKDNSKNQVSLKLSSVTAADTAVYYCARRGDSYSMKYWGQGTLVTVSS
VL: EIVLTQSPATLSLSPGERATLSCSASSQVSYIHWYQQKPGQAPRPWIYETSKLASGIPARFSGSGSGTDYTLTISSLEPEDFAVYYCQQWNYPLITFGQGTKLEIKR
notes: YR-8 with N60E (Kabat) in the heavy chain; human IgG1 / kappa
Take B5: the concentration for a half-maximal effect (EC50) in [12] was 0.15 nM; in [13], 0.25 nM; in assay [7] it was 0.05 µg/mL; in assay [9], 0.01 µg/mL. Moreover, the MFI fold in assay [12] was determined as 3.6 fold; in assay [13] it was 2.6 fold. Moreover, the Kd in assay [5] stood at 19 nM. The binding result in assay [11] is recorded as “no binding (tested: starting from 333.33 nM)”.

B6: humanized antibody BRHu-3 (antibody, human IgG1, kappa, V domains shown)
VH: QVQLQESGPGLVKPSETLSLTCTVSGFSLTSYGVHWIRQPPGKGLEWLGVIWAGGFTNYNSALKSRLTISKDNSKNQVSLKLSSVTAADTAVYYCARRGSSYSMDYWGQGTLVTVSS
VL: EIVLTQSPATLSLSPGERATLSCSASSNVSYIHWYQQKPGQAPRPWIYEISKLASGIPARFSGSGSGTDYTLTISSLEPEDFAVYYCQQWNYPLITFGQGTKLEIKR
notes: humanized D10, human IgG1 / kappa
With B6, the binding result in assay [1] is recorded as “no binding (tested: starting from 333.33 nM)”. Also, the figures for the EC50 in assay [4], in assay [2] and in assay [10] were 0.09 µg/mL, 0.0818 µg/mL and 0.03 µg/mL, respectively. For the same molecule, the results for the Kd in assay [8] and in assay [3] were 63.6 nM and 32.3 nM, respectively.

B7: YR-8-NT (antibody, human IgG1, kappa, V domains shown)
VH: QVQLQESGPGLVKPSETLSLTCTVSGFSLTRYGVHWIRQPPGKGLEWLGVIWAGGFTNYNTDLKSRLTISKDNSKNQVSLKLSSVTAADTAVYYCARRGDSYSMKYWGQGTLVTVSS
VL: EIVLTQSPATLSLSPGERATLSCSASSQVSYIHWYQQKPGQAPRPWIYETSKLASGIPARFSGSGSGTDYTLTISSLEPEDFAVYYCQQWNYPLITFGQGTKLEIKR
notes: YR-8 with S61T (Kabat) in the heavy chain
As for B7, the Kd in [5] worked out at 16 nM. The binding result in assay [11] is “binds”.

B8: YR-4 (antibody, human IgG1, kappa, V domains shown)
VH: QVQLQESGPGLVKPSETLSLTCTVSGFSLTRYGVHWIRQPPGKGLEWIGVIWAGGFTNYNSSLKSRVTISKDNSKNQVSLKLSSVTAADTAVYYCARRGDGYSMQYWGQGTLVTVSS
VL: EIVLTQSPATLSLSPGERATLSCSASSQVSYIHWYQQKPGQAPRPWIYEISKLASGIPARFSGSGSGTDYTLTISSLEPEDFAVYYCQQWNYPLITFGQGTKLEIKR
In the case of B8, the binding result in [6] was “binds”. For the same molecule, the Kd in assay [8] was 10 nM.

B9: YR-10 (antibody, human IgG1, kappa, V domains shown)
VH: QVQLQESGPGLVKPSETLSLTCTVSGFSLTRYGVHWIRQPPGKGLEWIGVIWAGGFTNYNSTLKSRVTISKDNSKNQVSLKLSSVTAADTAVYYCARRGNQYSMKYWGQGTLVTVSS
VL: EIVLTQSPATLSLSPGERATLSCSASSQVSYIHWYQQKPGQAPRPWIYETSKLASGIPARFSGSGSGTDYTLTISSLEPEDFAVYYCQQWNYPLISFGQGTKLEIKR
Turning to B9, the half-maximal effective concentration (EC50) in assay [4] was found to be 0.06 µg/mL; in [10] it was 0.01 µg/mL. For the same molecule, in assay [6], the binding result was “binds”. Further, the Kd in assay [8] is 11.3 nM.

B10: YR-8-NV (antibody, human IgG1, kappa, V domains shown)
VH: QVQLQESGPGLVKPSETLSLTCTVSGFSLTRYGVHWIRQPPGKGLEWLGVIWAGGFTNYNVDLKSRLTISKDNSKNQVSLKLSSVTAADTAVYYCARRGDSYSMKYWGQGTLVTVSS
VL: EIVLTQSPATLSLSPGERATLSCSASSQVSYIHWYQQKPGQAPRPWIYETSKLASGIPARFSGSGSGTDYTLTISSLEPEDFAVYYCQQWNYPLITFGQGTKLEIKR
notes: YR-8 with S61V (Kabat) in the heavy chain
Consider B10, for which the Kd in [5] came to 16 nM. Further, the binding result in [11] is given as “binds”.

B11: YR-11 (antibody, human IgG1, kappa, V domains shown)
VH: QVQLQESGPGLVKPSETLSLTCTVSGFSLTRYGVHWIRQPPGKGLEWIGVIWAGGFTNYNSALKSRVTISKDNSKNQVSLKLSSVTAADTAVYYCARRGNEYSMSYWGQGTLVTVSS
VL: EIVLTQSPATLSLSPGERATLSCSASSQVSYIHWYQQKPGQAPRPWIYETSKLASGIPARFSGSGSGTDYTLTISSLEPEDFAVYYCQQWNYPLITFGQGTKLEIKR
On to B11, for which the EC50 worked out at 0.02 µg/mL in [4] and 0.007 µg/mL in [10]. Besides, in assay [6], the binding result is given as “binds”. The equilibrium dissociation constant (Kd) in assay [8] amounted to 7.63 nM.

B12: YR-8-NI (antibody, human IgG1, kappa, V domains shown)
VH: QVQLQESGPGLVKPSETLSLTCTVSGFSLTRYGVHWIRQPPGKGLEWLGVIWAGGFTNYNIDLKSRLTISKDNSKNQVSLKLSSVTAADTAVYYCARRGDSYSMKYWGQGTLVTVSS
VL: EIVLTQSPATLSLSPGERATLSCSASSQVSYIHWYQQKPGQAPRPWIYETSKLASGIPARFSGSGSGTDYTLTISSLEPEDFAVYYCQQWNYPLITFGQGTKLEIKR
notes: YR-8 with S61I (Kabat) in the heavy chain
Regarding B12, the Kd in assay [5] was determined as 14 nM. The binding result in [11] is “binds”.

B13: YR-21 (antibody, human IgG1, kappa, V domains shown)
VH: QVQLQESGPGLVKPSETLSLTCTVSGFSLTRYGVHWIRQPPGKGLEWLGVIWAGGFTNYNSGLKSRLTISKDNSKNQVSLKLSSVTAADTAVYYCARRGDQYSMGYWGQGTLVTVSS
VL: EIVLTQSPATLSLSPGERATLSCSASSQVSYIHWYQQKPGQAPRPWIYETSKLASGIPARFSGSGSGTDYTLTISSLEPEDFAVYYCQQWNYPLITFGQGTKLEIKR
Consider B13, for which the binding result in assay [6] is “binds”. Moreover, the Kd in assay [8] was 6.21 nM.
